Results from patent publication US20170260257A1 (GREEN CROSS, published 2017).

What was measured:
[1] = target: HBsAg mutant of patient CH 75 (chronic hepatitis) (hepatitis B virus); test: sandwich ELISA: plate coated with the antibody, patient blood, detection with sheep anti-HBsAg/peroxidase
[2] = target: HBsAg mutant of patient LC 59 (liver cirrhosis) (hepatitis B virus); test: as above
[3] = target: HBsAg mutant of patient CH 62 (chronic hepatitis) (hepatitis B virus); test: as above
[4] = target: HBsAg mutant of patient CH 33 (chronic hepatitis) (hepatitis B virus); test: as above
[5] = target: HBsAg mutant of patient LC 53 (liver cirrhosis) (hepatitis B virus); test: as above
[6] = target: HBsAg mutant of patient CH 34 (chronic hepatitis) (hepatitis B virus); test: as above
[7] = target: T1, HBsAg mutant of patient CH 15 (chronic hepatitis) (hepatitis B virus); test: as above
T1 construct: Positions count on the S (surface) protein

[8] = target: HBsAg mutant of patient HCC 94 (hepatocellular carcinoma) (hepatitis B virus); test: as above
[9] = target: HBsAg mutant of patient LC 32 (liver cirrhosis) (hepatitis B virus); test: as above
[10] = target: HBsAg mutant of patient HCC 22 (hepatocellular carcinoma) (hepatitis B virus); test: as above
[11] = target: HBsAg mutant of patient HCC 1 (hepatocellular carcinoma) (hepatitis B virus); test: as above
[12] = target: HBsAg mutant of patient LC 98 (liver cirrhosis) (hepatitis B virus); test: as above
[13] = target: HBsAg mutant of patient CH 32 (chronic hepatitis) (hepatitis B virus); test: as above
[14] = target: HBsAg mutant of patient HCC 11 (hepatocellular carcinoma) (hepatitis B virus); test: as above
[15] = target: HBsAg of YMDD mutant virus, patient blood sample YMDD #10 (hepatitis B virus); test: as above
[16] = target: HBsAg of YMDD mutant virus, patient blood sample YMDD #7 (hepatitis B virus); test: as above
[17] = target: HBsAg of YMDD mutant virus, patient blood sample YMDD #4 (hepatitis B virus); test: as above
[18] = target: HBsAg of YMDD mutant virus, patient blood sample YMDD #9 (hepatitis B virus); test: as above
[19] = target: HBsAg of YMDD mutant virus, patient blood sample YMDD #11 (hepatitis B virus); test: as above
[20] = target: HBsAg of YMDD mutant virus, patient blood sample YMDD #8 (hepatitis B virus); test: as above
[21] = target: HBsAg of YMDD mutant virus, patient blood sample YMDD #14 (hepatitis B virus); test: as above
[22] = target: HBsAg of YMDD mutant virus, patient blood sample YMDD #6 (hepatitis B virus); test: as above
[23] = target: HBsAg of YMDD mutant virus, patient blood sample YMDD #5 (hepatitis B virus); test: as above
[24] = target: HBsAg of YMDD mutant virus, patient blood sample YMDD #13 (hepatitis B virus); test: as above
[25] = target: HBsAg of YMDD mutant virus, patient blood sample YMDD #1 (hepatitis B virus); test: as above
[26] = target: HBsAg of YMDD mutant virus, patient blood sample YMDD #3 (hepatitis B virus); test: as above
[27] = target: HBsAg of YMDD mutant virus, patient blood sample YMDD #12 (hepatitis B virus); test: as above
[28] = target: G145R HBsAg mutant of patient B** (HBV recurred after liver transplantation) (hepatitis B virus); test: sandwich ELISA: plate coated with the antibody (immobilized antibody rHBIG), patient blood, detection with sheep anti-HBsAg/peroxidase
[29] = target: G145R HBsAg mutant of patient L** (HBV recurred after liver transplantation) (hepatitis B virus); test: as above
[30] = target: G145R HBsAg mutant of patient C** (HBV recurred after liver transplantation) (hepatitis B virus); test: as above
[31] = target: G145R HBsAg mutant of patient W** (HBV recurred after liver transplantation) (hepatitis B virus); test: as above
[32] = target: T2, G145R HBsAg mutant of patient S** (HBV recurred after liver transplantation) (hepatitis B virus); test: as above
T2 construct: Position 145 of the HBV surface protein

B1: the antibody of the present invention comprising a heavy-chain variable region having amino acid sequence of SEQ ID NO: 2 and a light-chain variable region … (antibody, V domains shown)
VH: EVQLVESGGGLVKPGGSLRLSCSASGFSLTKYKMTWVRQAPGKGLEWVSSISSTSRDIDYADSVKGRFTISRDNAKNSLFLQMSSLRVDDTAVYYCTRDGWLWGWDVRSNYYYNALDVWGQGTTVTVSS
VL: DIVVTQSPSSLSASVGDRVTITCRASQGIYNSIAWYQQKPGKAPKLLLYSTSTLLSGVPSRFSGSGSGTDYTLTITNLQPEDFATYYCQQYFVTPETFGQGTKLEIKR
notes: Captured with goat anti-human IgG (Fc specific) agarose and compared with a human IgG1 isotype control, so a human IgG; also called rHBIG
ELISA [1]: 2.93 | ELISA [2]: 3.63 | ELISA [3]: 3.08 | ELISA [4]: 2.83 | ELISA [5]: 3.5 | ELISA [6]: 1.37 | ELISA [7]: 3.06 | ELISA [8]: 3.56 | ELISA [9]: 2.73 | ELISA [10]: 3.52 | ELISA [11]: 3.61 | ELISA [12]: 3.55 | ELISA [13]: 2.95 | ELISA [14]: 3.36 | A450 [15]: 1.13 A450 | A450 [16]: 1.1 A450 | A450 [17]: 1.02 A450 | A450 [18]: 0.834 A450 | A450 [19]: 0.786 A450 | A450 [20]: 1.14 A450 | A450 [21]: 0.815 A450 | A450 [22]: 1.04 A450 | A450 [23]: 0.356 A450 | A450 [24]: 1.07 A450 | A450 [25]: 1.16 A450 | A450 [26]: 0.957 A450 | A450 [27]: 0.876 A450 | ELISA signal (name and unit not given) [28]: 3.08 | ELISA signal (name and unit not given) [29]: 2.72 | ELISA signal (name and unit not given) [30]: 2.47 | ELISA signal (name and unit not given) [31]: 2.66 | ELISA signal (name and unit not given) [32]: 2.53
